The results in this text go back to the RNAGym collection of RNA variant scans (doi:10.1073/pnas.2313332121).

B1: TPR t1 (parent)
chain: GACCAAUCUGCCCUCAGAGCUCGAGAACAUCUUCGGAUGCAGAGGAGGCAGGCUUCGGUGGCGCGAUAGCGCCAACGUCCUCAACCUCCAAUGCAUCCCACCACAUGAUGAUGCCUGAAGAGCCUUGGUUUUUUG

The variants in this series derive from B1. The experiment in a line: polymerase ribozyme fitness, log enrichment relative to wild type (log ratio); higher = more active; in vitro selection for triplet polymerase activity. A digest of the protocol: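 PCR was used to build mutant libraries for each subunit of a heterodimeric triplet polymerase ribozyme, which were then transcribed. A single in vitro selection round, in triplicate, used a frozen incubation at −7 °C and recovered extended constructs by gel excision, streptavidin beads and RT-PCR. Fitness is the logarithm of genotype enrichment relative to wild-type enrichment, averaged over replicates with inverse-variance weights. The logarithm is base 2, and after Illumina sequencing only genotypes with ≥10 input reads and ≥1 read per output were kept.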
In the case of GACGAAUCUGCCCUCAGAGCUCGAGAACAUCUUCGGAUGCAGAGGAGGCAGGCUUCCGUGGCGCGAUAGCGCCAACGUCCUCAACCUCAAAUGCAUCCCACCACAUGAUGAUGCCUGAAGAGACUUGGUUUUUUG, the “polymerase ribozyme fitness (log ratio)” value is -3.43.

In the case of GACGAAUCUGCCCUCAGAGCUCGAGAACAUCUUCGGAUGCAGAGGAGGCAGGCUUCGGUGGCGCGAUAGCGCCAACGUCCUCAACCUCCAAUGCAUCCCACCACACGAUGAUGCGUGAAGAGCCUUGGUUUUUUG, the “polymerase ribozyme fitness (log ratio)” value is -4.76.

On to GACGAAUCUGCCCUCAGAGCUCGAGAACAUCUUCGAAUGCAGCGUAGGCAGGCUUCGGUGGCGCGAUAGCGCCAACGUCCUCAACCUCCAAUGCAUCCCACCACAUGAUGAUGCCUGAAGAGCGUUGGUUUUUUG, for which the “polymerase ribozyme fitness (log ratio)” value is -4.47.

For GACUAAUCUGCCCUCUGAGCUCGAGAACAUCUUCGGAUGCAUAGGAGGCAGGCUUCGGGGGCGCGAUAGCGCCAACGUCCUCAUCCUCCAAUGCAUCCCACCACAUGAUGAUGCCUGAAGAGCCUUGGUUUUUUG, the “polymerase ribozyme fitness (log ratio)” value is -4.24.

Take GACGAAGGUGCCCUCAGAGCUCGAGAACAUCUUCGGAUGCAGAGGAGGCAGGCUUCGGUGGCGCGAUAGCACCAACGUCCUCAACCUCCAAUGCAUCGCACCCCAUGAUGAUGACUGAAGAUCCUUGGUUUUUUG: the “polymerase ribozyme fitness (log ratio)” value was -5.04.

For the variant GACGAAUCUGCCCUCAGAGCUCGAGAACAUCUUCGGAUGUAGAGGAGGCAGGCUUCGGUGGCGCGCUAGCGCCAACGUCCUCAACGUCCAAUGCAUACCACCACAUGAUGAUGCGUGAAGAGCCUUGGUUUUUUG, the “polymerase ribozyme fitness (log ratio)” value was -6.24.

For GACGAAUCUGCCCUCAGAGCUCGAGAACAUCUUCGGAUGCAGACGAGGCAGGCUUCGGUGGUGCGAUAGCGCCAACGUCCUCAACCUCCAAUGCAUCCCACCACAUGAUGAUGCCUGAAGAGCCUUGGUUUUUUG, the “polymerase ribozyme fitness (log ratio)” value was -2.44.

Consider GACGAAUCUGCCCUCAGAGCUCGAGAACAUCUUCGGAUGCAGAGGAGGCAGGCUUCGGUGGCGCGAUAGCGCCAACGUCCUCAACCUCCAAUGCAUCCCACCACAUGAUGAUUCCUGAAGAGCCUUGGUUUUUUG, for which the “polymerase ribozyme fitness (log ratio)” value is -3.96.

As to GACGAAUCUGCCCUCAGAGCUCGAGAACAUCUUCGGAUGCAGAAGUGGCAGGCUUCGGCGGCGCGAUAGCGCCAACGUCCUCAACCUCCAAUGCAUCCCACCACAUGAUGAUGCCUGAAGAGCCUUGGUUUUUUG, the “polymerase ribozyme fitness (log ratio)” value is -3.73.

GACGAAUCUGCCCUCAGAGCUCGAGAACAUCUUCGGAUGCAGAGGAGGCAGGCUUCGGUGGCGCGAUAGCGCCAACGUCUUCAACCUCGAAUGCAUCCCACCACAUGAUGAUGCCUGAAGAGCCUUGGUUUUUUG: the “polymerase ribozyme fitness (log ratio)” value was -4.61.

As for GACGAAUCUGCCCUCAGAGCUCGAGAACAUCUUCGGAUGCAGAGGAGGCAGGCUUCGGUGGCGCGAUAGCGCCAACGUCCUCAACCUCCAAUGCAUCCCACCACAUGAUGAUGCCUGAAGAGGCUUGCUUUUUUG, the “polymerase ribozyme fitness (log ratio)” value was -0.896.

Take GACGAAUCUGCCCUCAGAGCUGGAGAACAUCUUCGGAUGCAAAGGAGGCAGGGUUCGGUGGCGCGAUAGCGCCAACGUCCUCAACCUCCAAUGCAUCCCACCACAUGAUGAUGCCUGAAGAGCCUUGGUUUUUUG: the “polymerase ribozyme fitness (log ratio)” value is -4.26.

Consider GACGAAUCGGCCCUCAGAGCUCGAGAACAUCUUCGGAUGCGGAGGAGGCAGGCUUCGGUGGCGCGAUAGCGCCAACGUCCUCAACCUCCAAUGCACCCCACCACAUGAUGCUGCCAGAAGAGGCUUGGUUUUUUG, for which the “polymerase ribozyme fitness (log ratio)” value was -1.71.

GACGAAUCUGCCCUCAGAGCUCGAGAACAUCUUCGGAUUCAGAGGCGGCAGGCUUCGGUGGCGCGAUAGCGACAACGUCCUCAACCGGCAAUGCAUCCCACCACAUGAUGAUGCCUGAAGAGCCUUGGUUUUUUG: the “polymerase ribozyme fitness (log ratio)” value is -3.06.

In the case of GACGAAUCUGCCCUCAGAGCUCGAGAACAUCUUCGGAUGCAGAGGAGGCAGGCUUCGGUGGCGCGAUAGCGUCAACGUCCUCAACCUCCAAUGCAUCCCACCACAUGAUGAUGCCUGAAGAGCCUUGGUUUUUUG, the “polymerase ribozyme fitness (log ratio)” value is -1.37.

On to GACGAAUCGGCCCUCAGAGCUCGAGAACAUCUUCGGAUGCGGAGGAGGCAGGCUUCGGUGGCGCGAUAGCGCCAACGUCCUCAACCUCCAAUGCAUCCCACCACAUGAUGAUGCCUGAAGAGCCUUGGUUUUUUG, for which the “polymerase ribozyme fitness (log ratio)” value was -1.21.

For the variant GACGAAUCUGCCCUCAGAGCUCGAGAACAUCUUCGGAUGCAGAGGAGGCAGGCUUCGGUGGCGCGAUAGCGCCAACGCCCUCAACCUUCAAUGGAUCCCACCACAUGAUGAUGCCUGAAGAGCUUUGGUUUUUUG, the “polymerase ribozyme fitness (log ratio)” value was -2.42.

As to GACGAAUCUGCCCUCAGAGCUCGAGAACAUCUUCGGAUGCAGAGGAGGCAGGCUUCGGUGGCGCGAUAGCUCCAACGUCCUCAACCUCCAAUGCAUCCCACCACAUGAUGAUGCCUGAAGAGCCUUGGUUUUUUG, the “polymerase ribozyme fitness (log ratio)” value is -1.92.

Take GACGAAUCUGCCCUCAGAGCUCGAGAACAUCUUCGGAUGCAGAGGAGGCAGGCUUCGGUGGCGCGAUAGGGCCAACGUCCUCAACCUCCAAUGCAUCCCACCACAUGAUGAUGCCUGAAGAGCCUUGGUUUUUUG: the “polymerase ribozyme fitness (log ratio)” value is -3.78.

In the case of GACGAAUCUGCCCUCAGAGCUCGAGAACAUCUUCGGAUGCAGAGGAGGCAGGCUUCGGUGGCGCGAUAGCGCCAACGUCCUCAACCGCCAAUGCAUCCCACCACAUGAUGAUGCCUGAAGAGCCUUGGUUUUUUG, the “polymerase ribozyme fitness (log ratio)” value was -1.54.

As for GACGAAUCUGCCCUCAGAGCUCGAGAACAUCUUCGGAUGCAGAGGAGGCAGGCUUAGGGGGCGCGAUAGCGCCAACGUCCUCAACCUCCAAUGCAUCCCACCAUAUGAUGUUGCCUGAAGAGUCUUGGUUUUUUG, the “polymerase ribozyme fitness (log ratio)” value is -4.15.
